Data published in publication PMC6751061.

Target: T1, LexA (Bacillus subtilis 3610) (UniProt P31080)
T1 sequence: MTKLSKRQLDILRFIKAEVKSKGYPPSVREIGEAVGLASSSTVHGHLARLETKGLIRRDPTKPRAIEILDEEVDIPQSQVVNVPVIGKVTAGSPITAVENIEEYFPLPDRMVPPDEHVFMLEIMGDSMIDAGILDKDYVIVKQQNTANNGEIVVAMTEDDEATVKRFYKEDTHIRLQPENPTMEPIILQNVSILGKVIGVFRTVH
Experiment: EMSA
Settings: EMSA: 4 nM 32P probe, LexA 1-500 nM, binding buffer as printed (likely 5x stock): 100 mM HEPES pH 7.5, 100 mM Tris-HCl, 50% glycerol, 500 mM NaCl, 10 mM EDTA …

Row | Sequence | binding signal (fold lower affinity) | binding
1 | AGGAGGGATCCTCTATATTGCTATTTCATGTTGGTGGATACAAGTAAAACCAAAATTTCCATATCCATCAGACTTAATGATTTTATCTAGAGAAATAGAAACGTAAACGAAAAAAATATTATTTTTTTAACTTTTTGTTTGAGCCTTTTTACAGATTGGAAGTCTTCAGAATAGGTCTTTTTTGGTAGTACTTACAATAATTATTATATTACATAAGTACTAGATCGTACACGAATTCCTCCT (double strand) [PsigNDN] | 500 | 
2 | CCTGACGATCACTCATTCTATTTTTTCCTCCTTTATGTTACCACTACATATACTATACCCTGTTTGAAGGGATTTGCCAAGAAAAAAGCGAACGCATATTCGGATTTTTTCTTGGCGTGATTCCTATCAAAATATCATAATGTATCAGAGAAATCATGTTTTCTTAGGAGGATAATGTGCTG (double strand) [PrecA] |  | binds
